Test results as given in publication PMC8465315, “Molecular Umbrella as a Nanocarrier for Antifungals” (Molecules, 2021).

Tests used:
[1] = system: Candida spp.; experiment: Antifungal in vitro activity, summary statements over the Candida strains tested; assay type: cell-based; conditions: RPMI-1640 medium
Experimental: The antifungal in vitro activity of conjugates 24a–d and 35 was determined by the serial two-fold dilution method, using the 96-well microtiter plates, in two growth media, RPMI-1640 and YNB-AS, against seven yeast species from the Candida genus. The MIC50 and MIC90 values, i.e., concentrations at which cell growth was inhibited in 50% and 90%, respectively, were measured and compared to those of the intact cispentacin. The concentration values presented in Table 1 and Table 2 are expressed in mM units to allow the comparison of the compounds’ effectiveness at the molecular level. For data expressed in μg mL^−1 units, such comparison is not possible, since the molecular masses of conjugates (≈1755–2114 D range) are 14–16-fold higher than that of cispentacin (128.3 D).
Susceptibility testing was performed in two growth media: (a) RPMI-1640 w/o sodium bicarbonate, with L-glutamine + 2% glucose + 3.45% MOPS, pH adjusted to 7.0; (b) YNB-AS—Yeast Nitrogen Base w/o amino acids (contains ammonium sulfate 5 g L^−1) + 2% glucose. The in vitro growth inhibitory activity of antifungals was quantified by determination of MIC50 and MIC90 values by the serial two-fold dilution method, using the 96-well microtiter plates. Serial dilutions of cispentacin and its conjugates were prepared in the 4–0.015 mM range.
Conditions of the RPMI-1640-based assay were the same as outlined in the CLSI recommendations except for the end-point readout that was done by spectrophotometric determination of cell density at 660 nm. Turbidity in individual wells was measured with a microplate reader (Victor^3; Perkin Elmer). The 96-well microtiter plates were also used for the determination of in vitro growth inhibitory activity in YNB-AS medium. Individual wells were inoculated with 5 × 10^3 Candida cells mL^−1 from the overnight culture in YPD medium. The plates were incubated at 37 °C for 24 h, and then, turbidity was measured with a microplate reader at 660 nm, as described above for the RPMI-1640-based assay.
Values of MIC50 and MIC90 were read from the graphs of A660 vs. drug concentration and corresponded to the interpolated values of drug concentration at which A660 was 50% or 10% of that measured for the drug-free control.

[2] = system: pig liver esterase; experiment: HPLC-MS analysis of conjugate cleavage, model system with pig liver esterase; assay type: in vitro ADME; conditions: pig liver esterase 5 mg mL^−1; conjugate 150 µM; 30 °C; 0, 30, 120 min
Experimental: (§1) Conjugates 24a–d, containing the TML system, were tested for susceptibility to enzymatic cleavage in the model system with pig liver esterase and in cell-free extract prepared from C. albicans cells. Conjugate 35 containing the o-dithiobenzylcarbamoyl linker was tested in the model system with glutathione and in C. albicans cell-free extract.
(§2) Analysis of cleavage of the conjugates was performed in two experimental systems: (A) model system, in the presence of pig liver esterase or glutathione, reduced; (B) in C. albicans cell-free extract.
Mixtures containing a given conjugate at the initial concentration of 150 µM and pig liver esterase, 5 mg mL^−1 or 10 mM glutathione, reduced, in a total volume of 200 μL were incubated at 30 °C. Samples of 50 μL were collected at zero time, after 30 min, and after 120 min and subjected to HPLC-MS analysis.
(§3) The HPLC-MS system consisted of a liquid chromatograph, a degasser, a binary pomp, an auto-sampler, and a column oven, which was combined with an MS detector with an electrospray source (AJS ESI) and quadrupole analyzer (1260 Infinity II and 6470 Triple Quad LC/MS, Agilent Technologies, Waldbronn, Germany). The ChemStation software was used to control the LC-MS system and for data processing.
(§4) Chromatographic separations were performed on an Eclipse XDB-C18 column (150 mm × 4.6 mm, 5 μm). For the separation, a gradient of mobile phase A (H2O + 0.01% HCOOH) and mobile phase B (100% methanol) was used. The gradient profile was set as follows: 0 min—95% effluent A, 8 min—70% effluent A, 11 min—50% effluent A, 12 min—95% effluent A, 17 min—95% effluent A. The flow rate was 1 mL min^−1, the column temperature was 25 °C, and the injection volume was 20 μL.
(§5) The electrospray source operated in a negative mode. The data were collected in a MS scanning mode (MS2 SCAN) with the range 150–700 (m/z).

[3] = system: C. albicans cell-free extract; assay type: in vitro ADME, Candida albicans; conditions: conjugate 150 µM, 30 °C, 0, 30, 120 min
Experimental: as §1
C. albicans cells were harvested from the culture in YPD medium in the logarithmic phase of growth and washed with PBS, pH 7.4. Then, cells were suspended in a minimal amount of PBS to an optical density OD660 ≈ 1.5. A sample of 1.5 mL of the cell suspension was put into the Lysing Matrix D, 2 mL tubes containing 1.4 mm ceramic spheres (MP Biomedicals). The tubes were vortexed 5 times for 2 min intervals, with 2 min breaks for cooling in the ice/water bath. Finally, the mixtures were centrifuged (10,000× g, 4 °C, 20 min), and the supernatant was pushed through the syringe filter, 0.22 μm pore size, to remove unbroken cells. The thus-obtained cell-free extract was kept at 4 °C and used no later than 5 h after preparation.
as §2
A given conjugate was dissolved in 4 mL of C. albicans cell-free extract to the initial concentration of 150 µM. Mixtures were incubated at 30 °C. Samples of 1 mL were collected at zero time, after 30 min, and after 120 min. The collected samples were immediately de-proteinized by centrifugation (4 °C, 5000× g, 10 min) in Amicon® Ultra-4 Centrifugal Filter Units, 3 kDa cutoff limit. Samples of 50 μL were collected from the filtrates and subjected to HPLC-MS analysis.
as §3, §4, §5

Row | Compound | antifungal activity [1] | cleavage / release of cispentacin (HPLC-MS) [2] | cleavage / release of cispentacin or its derivative (HPLC-MS) [3]
1 | Cc1cc(C)c(C(C)(C)CC(=O)N[C@H]2CCC[C@H]2C(=O)O)c(OC(=O)CCC(=O)N(CCCCNC(=O)CC[C@@H](C)[C@H]2CC[C@H]3[C@@H]4CC[C@@H]5C[C@H](OS(=O)(=O)O)CC[C@]5(C)[C@H]4C[C@H](OS(=O)(=O)O)[C@]23C)CCCNC(=O)CC[C@@H](C)[C@H]2CC[C@H]3[C@@H]4CC[C@@H]5C[C@H](OS(=O)(=O)O)CC[C@]5(C)[C@H]4C[C@H](OS(=O)(=O)O)[C@]23C)c1 [24a] | devoid of antifungal activity | resistant to enzymatic cleavage | Neither cispentacin nor the m/z 145.1/145.2 compound was found
2 | Cc1cc(C)c(C(C)(C)CC(=O)N[C@H]2CCC[C@H]2C(=O)O)c(OC(=O)CCC(=O)N(CCCCNC(=O)CC[C@@H](C)[C@H]2CC[C@H]3[C@@H]4[C@H](OS(=O)(=O)O)C[C@@H]5C[C@H](OS(=O)(=O)O)CC[C@]5(C)[C@H]4C[C@H](OS(=O)(=O)O)[C@]23C)CCCNC(=O)CC[C@@H](C)[C@H]2CC[C@H]3[C@@H]4[C@H](OS(=O)(=O)O)C[C@@H]5C[C@H](OS(=O)(=O)O)CC[C@]5(C)[C@H]4C[C@H](OS(=O)(=O)O)[C@]23C)c1 [24b] | devoid of antifungal activity | resistant to enzymatic cleavage | Neither cispentacin nor the m/z 145.1/145.2 compound was found
3 | Cc1cc(C)c(C(C)(C)CC(=O)N[C@H]2CCC[C@H]2C(=O)O)c(OC(=O)CCCCCC(=O)N(CCCCNC(=O)CC[C@@H](C)[C@H]2CC[C@H]3[C@@H]4[C@H](OS(=O)(=O)O)C[C@@H]5C[C@H](OS(=O)(=O)O)CC[C@]5(C)[C@H]4C[C@H](OS(=O)(=O)O)[C@]23C)CCCNC(=O)CC[C@@H](C)[C@H]2CC[C@H]3[C@@H]4[C@H](OS(=O)(=O)O)C[C@@H]5C[C@H](OS(=O)(=O)O)CC[C@]5(C)[C@H]4C[C@H](OS(=O)(=O)O)[C@]23C)c1 [24c] |  | Presence of the released cispentacin was confirmed | the product of a possible cleavage, with RT similar to that of cispentacin but with 17 D higher MW, was formed
